Literature values, collected in PMC4321732.

What was measured:
[1] = target: p53K370me2 (Homo sapiens) (UniProt P04637)
[2] = target: p53K382me2 (Homo sapiens) (UniProt P04637)
[3] = target: Histone H4K20me2 (Homo sapiens) (UniProt P62805)

53BP1 TTD tandem Tudor domain, sequence (Q12888 1484-1603): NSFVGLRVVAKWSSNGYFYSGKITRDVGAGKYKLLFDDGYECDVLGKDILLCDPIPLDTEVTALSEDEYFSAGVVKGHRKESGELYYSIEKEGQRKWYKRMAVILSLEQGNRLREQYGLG
p53K370me2 (Homo sapiens), sequence (P04637 whole entry): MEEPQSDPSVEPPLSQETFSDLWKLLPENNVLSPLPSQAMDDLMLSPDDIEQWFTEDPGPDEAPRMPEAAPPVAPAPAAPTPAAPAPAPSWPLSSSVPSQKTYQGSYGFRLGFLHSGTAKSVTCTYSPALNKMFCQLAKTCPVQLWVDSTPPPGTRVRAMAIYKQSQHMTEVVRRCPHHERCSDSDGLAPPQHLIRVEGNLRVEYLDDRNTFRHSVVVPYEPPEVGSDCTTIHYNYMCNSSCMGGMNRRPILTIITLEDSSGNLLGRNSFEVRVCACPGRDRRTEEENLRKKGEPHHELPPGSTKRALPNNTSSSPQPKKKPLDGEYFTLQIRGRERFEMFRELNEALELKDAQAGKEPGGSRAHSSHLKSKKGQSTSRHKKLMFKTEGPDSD
p53K382me2 (Homo sapiens), sequence (P04637 whole entry): as above

Kd [1]: 20 µM
Kd [2]: 0.9 µM
Kd [3]: 1.3 µM
Substance: 53BP1 TTD tandem Tudor domain (from UniProt Q12888)
